Publication doi:10.1101/2021.05.23.445342 (bioRxiv, 2021)

B1: Biotin-Cys-AKAP5c_(ILVF->SA) (domain or fragment)
chain: CVAEETKPKDTELSQESDFKENGITEEKSKSEESKRMEPIAIIITDTEISEFDVTKSKNVPKQASASAENEQVGVFANDNGFEDRTSEQYETASAETASSLVKNAAQSSAEQSANEMASDDNKINNLLQ
modifications: biotin (EZ-Link Maleimide-PEG2-Biotin) on the unique added N-terminal Cys
notes: unique Cys added immediately after the GS of the thrombin or TEV site; AKAP5 (AKAP79), human, residues 300-427; all I, L, V and F residues of the three secondary sites mutated to S or A; A GS remnant of the protease site probably precedes the Cys; also called AKAP5c_(ILVF->SA) (on the SPR surface); source: E. coli BL21(DE3) or BL21 Star (DE3), purified (heat step, Ni-NTA, Resource Q), …
B2: AKAP5c_(ILVF->SA) (domain or fragment)
chain: VAEETKPKDTELSQESDFKENGITEEKSKSEESKRMEPIAIIITDTEISEFDVTKSKNVPKQASASAENEQVGVFANDNGFEDRTSEQYETASAETASSLVKNAAQSSAEQSANEMASDDNKINNLLQ
notes: AKAP5 (AKAP79), human, residues 300-427; all I, L, V and F residues of the three secondary sites mutated to S or A; PIAIIIT site present; Generated by gene synthesis (GeneArt); 15N-labelled for NMR, unlabelled for ITC; also called AKAP_(ILVF->SA); source: E. coli BL21(DE3) or BL21 Star (DE3), purified (heat step, Ni-NTA, Resource Q)

Assays:
[1] = biological target: T1, Calcineurin (human PPP3CA / PPP3R1 heterodimer) (human, UniProt Q08209 1-521; P63098 1-170); assay: SPR; Biacore T200, 25 °C; biotin-Cys-AKAP constructs immobilised on an SA chip, Calcineurin as analyte; 10 mM PIPES pH 6.5, 150 mM NaCl, 0.05% Tween20; apparent Kd from fit of the response at the end of association vs concentration ('steady-state'); conditions: both partners purified
T1 construct: Calcineurin A subunit, human PPP3CA, from pET15b CnA CnB; Calcineurin B subunit, human PPP3R1, from pET15b CnA CnB; also called Cn; PP2B; source: E. coli BL21(DE3) or BL21 Star (DE3), purified (ammonium sulphate, Ni-NTA, Resource Q, S200 SEC)

[2] = biological target: T1, Calcineurin (human PPP3CA / PPP3R1 …); assay: ITC; ITC200, 25 °C; 250 µM AKAP5c or AKAP5c_(ILVF->SA) injected into 18.32 µM Calcineurin; 10 mM Tris/HCl pH 7.4, 150 mM NaCl, 5 mM DTT; 1-site model (average of two repeats) and 2-site model with fixed N = 1 (global fit); conditions: both partners purified

Binder	Kd [1]	Kd [2]	stoichiometry N [2]
B1	~0.6 µM	–	–
B2	–	1.5 µM	0.99 AKAP5c:Cn
